Data reported in the supplement of paper PMC7877785.
± gives the uncertainty stated by the source.

Experiment: self-splicing fitness, log relative to wild type (ln ratio); higher = more splicing; Tetrahymena group I intron in knt gene, E. coli kanamycin selection, DiMSum; sequences stand for … in CUCUCU…GGAGGGAAAAGUUAUCAGGCAUGCACCUGGUAGCUAGUCUUUAAACCAAUAGAUUGCAUCGGUUUAAAAGGCAAGACCGUCAAAUUGCGGGAAAGGGGUCAACAGCCGUUCAGUACCAAGUCUCAGGGGAAACUUUGAGAUGGCCUUGCAAAGGGUAUGGUAAUAAGCUGACGGACAUGGUCCUAACCACGCAGCCAAGUCCUAAGUCAACAGAUCUUCUGUUGAUAUGGAUGCAGUUCACAGACUAAAUGUCGGUCGGGGAAGAUGUAUUCUUCUCAUAAGAUAUAGUCGGACCUCUCCUUAAUGGGAGCUAGCGGAUGAAGUGAUGCAACACUGGAGCCGCUGGGAACUAAUUUGUAUGCGAAAGUAUAUUGAUUAGUUUUGGAGUACUCGUGGUCG
Summary of the method: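 Pooled colonies went to amplicon sequencing on an Illumina HiSeq 2500 after six replicate transformations. The plates were LB agar with 100 μg/mL carbenicillin, 50 μM IPTG and 0.2% rhamnose, with or without 25 μg/mL kanamycin, incubated overnight at 37°C or 30°C. The E. coli BL21(DE3) library had all eight P1ex-region intron nucleotides randomised, the intron placed in the knt kanamycin-resistance gene on pET-22b(+). DiMSum fitness is the error-weighted combination of replicate fold changes, kanamycin against none, normalised to wild type.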

Sequence	self-splicing fitness (ln) (30 °C)	self-splicing fitness (ln) (37 °C)
UGUCAGCAAUAUUACGACCA	-0.0909 ± 0.084	0.138 ± 0.12
CGGUAGCAAUAUUACGUUUU	-3.83 ± 0.26	-2.41 ± 0.19
CAAAAGCAAUAUUACGUAGG	-0.97 ± 0.057	0.00194 ± 0.083
CCGAAGCAAUAUUACGAGUA	-2.42 ± 0.2	-2.92 ± 0.23
AGCAAGCAAUAUUACGGGUU	-1.67 ± 0.1	-2.17 ± 0.14
AACAAGCAAUAUUACGAGUC	-3.19 ± 0.12	-1.89 ± 0.14
CCCGAGCAAUAUUACGUAAG	-3.63 ± 0.2	-2.77 ± 0.18
AUCAAGCAAUAUUACGCACA	-0.256 ± 0.066	-0.0877 ± 0.076
CGGUAGCAAUAUUACGAAUU	-2.07 ± 0.24	-2.34 ± 0.24
GCCUAGCAAUAUUACGUGGG	-4.52 ± 0.23	-3.36 ± 0.3
CUUGAGCAAUAUUACGAGAC	-2.12 ± 0.33	–
UAGGAGCAAUAUUACGCGAC	–	-1.74 ± 0.38
UAUAAGCAAUAUUACGUCUA	0.561 ± 0.077	0.494 ± 0.1
GAACAGCAAUAUUACGACAA	-1.24 ± 0.13	-0.239 ± 0.15
ACGUAGCAAUAUUACGAAAG	-3.88 ± 0.25	-3.59 ± 0.31
AGCUAGCAAUAUUACGUCGA	-2.69 ± 0.2	-1.9 ± 0.14
CCCUAGCAAUAUUACGCUCC	–	-2.13 ± 0.4
CGAUAGCAAUAUUACGUCGU	-4.24 ± 0.2	-3.05 ± 0.21
CAGCAGCAAUAUUACGUGCC	-3.2 ± 0.17	-2.05 ± 0.21
AAUAAGCAAUAUUACGCGUG	-0.604 ± 0.071	-0.455 ± 0.089
AAAAAGCAAUAUUACGUGCU	-1.68 ± 0.076	-0.538 ± 0.079
UACCAGCAAUAUUACGCAUU	-2.42 ± 0.092	-0.373 ± 0.078

Sequence	self-splicing fitness (ln) (30 °C)	self-splicing fitness (ln) (37 °C)
UCACAGCAAUAUUACGAAGG	-1.55 ± 0.097	-0.755 ± 0.12
GACAAGCAAUAUUACGGUUU	-1.79 ± 0.079	-0.351 ± 0.074
AUAUAGCAAUAUUACGCCCU	-0.155 ± 0.15	0.32 ± 0.18
CGAAAGCAAUAUUACGGCCA	-1.29 ± 0.14	-1.23 ± 0.099
AUCCAGCAAUAUUACGUGGA	-4.34 ± 0.39	-2.23 ± 0.19
AUAAAGCAAUAUUACGAACC	-1.28 ± 0.18	-0.77 ± 0.25
GAAAAGCAAUAUUACGUUCC	-3.72 ± 0.26	-2.95 ± 0.24
CACUAGCAAUAUUACGACUA	-2.82 ± 0.23	-1.43 ± 0.2
UUAAAGCAAUAUUACGUAUA	-1.26 ± 0.12	-0.271 ± 0.14
AUGAAGCAAUAUUACGGUCG	0.0254 ± 0.086	0.299 ± 0.1
ACUAAGCAAUAUUACGAGGG	-2.55 ± 0.17	-2.31 ± 0.24
GGGAAGCAAUAUUACGACUU	0.323 ± 0.11	-0.202 ± 0.15
UGGCAGCAAUAUUACGCGAG	-1.96 ± 0.1	-0.954 ± 0.097
AUACAGCAAUAUUACGCAGC	-4.34 ± 0.45	-1.87 ± 0.19
CAACAGCAAUAUUACGCGUU	-3.77 ± 0.14	-1.62 ± 0.08
UGAUAGCAAUAUUACGUGAA	-3 ± 0.17	-1.7 ± 0.16
AACGAGCAAUAUUACGCGAG	-2.75 ± 0.24	-2.61 ± 0.25
CUACAGCAAUAUUACGUCUC	-3.38 ± 0.18	-2.55 ± 0.3
CUAUAGCAAUAUUACGGAAU	-3.5 ± 0.4	–
UAAGAGCAAUAUUACGCUUG	-2.66 ± 0.23	-1.38 ± 0.18
UACGAGCAAUAUUACGGGCC	–	-3.34 ± 0.28
